As a reminder, the Kd is the concentration at which binding is half-saturated. Read a high Kd as a looser complex.

This is an account of results in patent publication US20110020353A1 (published 2011).

For this assay, the target named is T1, 161P2F10B variant 1 (human), on the cell surface (human, UniProt O14638 1-875).
T1 construct: Reported to be dimeric on the cell surface; also called 161P2F10B v.1; CD203c
The assay is described as follows: FACS on KU-812 cells, serial dilutions, one site binding fit.

B1: Ha16-1.42 (antibody, V domains shown)
VH: EVQLVQSGAEVKKPGESLKISCKGSGYRFTSYWIGWVRQMPGKGLEWMGIIYPGDSDTRYSPSFQGQVTISADKSISTAYLQWSSLKASDTAMYYCARKDYYYYSMDVWGQGTTVTVSS
VL: QSALTQPASVSGSPGQSITISCTGTSSDVGRFNYVSWYQQRPGKAPKLMIYAVNIRPSGVSNRFSGSKSGNTASLTISGLQAEDEAGYYCSSYTSSSTLLVFGGGTKLTVLG
With B1, the dissociation constant Kd came to 20 pM.
